According to PMC7145715:

Target: KDM4B (1-350) (UniProt O94953 1-350)
Assay: EMSA

Sequence of KDM4B (1-350) (O94953 1-350): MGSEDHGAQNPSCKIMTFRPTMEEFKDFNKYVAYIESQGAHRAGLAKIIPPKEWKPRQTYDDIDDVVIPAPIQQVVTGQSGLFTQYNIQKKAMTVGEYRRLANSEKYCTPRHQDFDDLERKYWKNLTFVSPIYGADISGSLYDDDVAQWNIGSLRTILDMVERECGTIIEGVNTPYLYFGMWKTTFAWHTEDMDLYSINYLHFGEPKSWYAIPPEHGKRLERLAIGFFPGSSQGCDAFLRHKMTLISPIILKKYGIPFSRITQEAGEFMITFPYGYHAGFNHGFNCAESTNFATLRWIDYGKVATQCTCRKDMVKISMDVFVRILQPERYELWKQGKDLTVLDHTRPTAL

CUCAUCUCCAGUCUGAGUAAUAAUGCUUAUAGUAUUAUGG (ssRNA) [WT-4BRBS (AR-A2)]
binding result: binds
